# Data taken from the nanobody polyreactivity screen of Harvey et al. (2022).
# Test: yeast display, Sf9 membrane polyspecificity reagent, FACS + sequencing; frameworks hold sequencing errors
# Outline: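 Using colony PCR, genes from sorted yeast display clones were amplified, then sequenced on MiSeq at 2 × 250 and filtered by CDR length. The clones had been stained with 10% biotinylated, detergent-solubilized Sf9 membrane reagent for 1 hour at 4 °C and sorted by FACS into low and high (top ~1%) gates on anti-HA and streptavidin fluorescence. Polyreactivity labels come from the gate of origin.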
row,Sequence,polyreactivity (PSR sort gate)
1,QVQLVESGGGLVQAGGSLRLSCAASGSIFDDYVMGWYRQAPGKERELVAAIRSSGGRTYYADSVKGRFTISRDNAKNTVYLQMISLKPEDTAVYYCNAVTKHRQSVPYAYGYWGQGTQVTVSS,high polyreactivity
2,QVQLVESGGGLVQAGGSLRLSCAASGSIFDGNAMGWYRQAPGKERELVASITYRGGSTYYADSVKGRFTISRDNAKNTVYLQMNSLQPEDTAVYYCAAVFKYRYDYWGQGTQVTVSS,low polyreactivity
3,QVQLVESGGGLVQAGGSLRLSCAASGSIFDGYAMGWDRQAPGKEREFVATITVSGGRTYYADSVKGRFTISRDNAKTTVYLQRNSLKPEDTAVYYCAARKVPLIRSSTVRQYYYWGQGTQVTVSS,high polyreactivity
4,QVQLVESGGGLVQAGGSLRLSCAASGSIFDGYAMGWYRQAPGKEREFVAAITKRTGRTYYADSVKGRFTISRDNAKNTVYLQMNSLKPEDTAVYSCAARKKSLTTLRYGYWGQGTQVTVSS,high polyreactivity
5,QVQLVESGGGLVQAGGSLRLSCAASGSIFDGYAMGWYRQAPGKERELVAAISASGVRTYYADSVKGRFTISRDNAKNTVYLQMNSLKPEDTAVYYCAAAVYYGQSVWYYYWGQGTQVTVSS,high polyreactivity
6,QVQLVESGGGLVQAGGSLRLSCAASGSIFDHNAMGWYRQAPGKEREFVAAISSSGGSTYYADSVKGRFTISRDKAKNTVYLQMNSLKPEDTAVYYCAAFPDRYVEHGYWGQGTQVTVSS,low polyreactivity
7,QVQLVESGGGLVQAGGSLRLSCAASGSIFDHTKAMGRYRQSPGKERELVAGITRGGSTNYADSVKGRFTISRDNAKNTFYLQMNSLKPEDTAVYYCAKAMPAKFYSEAGYDYWGQGTQVTVSS,low polyreactivity
8,QVQLVESGGGLVQAGGSLRLSCAASGSIFDIYAMGWYRQAPGKERELVAAITNGGSTYADSVKGRFTISRDNAKNTVYLQMNSLKPEDTAVYYCAAYVDQYEYNYWGQGTQVTVSS,low polyreactivity
9,QVQLVESGGGLVQAGGSLRLSCAASGSIFDIYGMGWYRQAPGKESELFASISGGAGSTNYADSVKGRFTISRDNAKNTVYLQMNSLKPEDTAVYYCAAEVYVPDYFQHKFDVEYEYWGQGTQVTVSS,low polyreactivity
10,QVQLVESGGGLVQAGGSLRLSCAASGSIFDKNAMGWYRQAPGKERELVAAITSSGGDTYYADSVKGRFTISRDNAKNTVYLQMYSLKPEDTAVYYCAALGGRYRASTYGYWGQGTQVTVSS,high polyreactivity
11,QVQLVESGGGLVQAGGSLRLSCAASGSIFDLNAMGWYRQAPGKERELVAAISKSGGSTYYADSVKGRFTISRDNAKHTVYLQMNSLKPEDTAVYYCAARYHYPGNWYNYWGQGTQVTVSS,low polyreactivity
12,QVQLVESGGGLVQAGGSLRLSCAASGSIFDLYAMGWYRQAPGKERELVAAITSTGSTYYADSVKGRFTISRDNAKNTVYLQMNSLKPEDTAVYYCAATRGSSEYYYWGQGTQVTVSS,low polyreactivity
13,QVQLVESGGGLVQAGGSLRLSCAASGSIFDLYAMGWYRQAPGKERELVASIRYSGGRTYYADSVKGRFTISRDNAKNTVYLQMNSLKPEDTAVYYCNRDGGYTFIMDYWGQGTQVTVSS,low polyreactivity
14,QVQLVESGGGLVQAGGSLRLSCAASGSIFDLYDMGWYRQAPGKERELVADISFSGGSTFYADSVKGRFTISRDNAKNTVYLQMNSLKPEDTAVYYCAADAALITDYGWADMYYWGQGTQVTVSS,low polyreactivity
15,QVQLVESGGGLVQAGGSLRLSCAASGSIFDNNAMGSYRQAPGKERELVAGINWDDGSTYYADSVKGRFTISRDNAKNTVHLQMISLKPEETAVYYCARDVYVYRWNDFWAVWTWYDYWGQGTQVTVSS,low polyreactivity
16,QVQLVESGGGLVQAGGSLRLSCAASGSIFDNNAMGWYRQAPGKERELVAVITRSGGSTHYADSVKGRFTISRDNAKNTVYLQMNSLKPEDTAVYYCATDGLFYVDGSWTLGYWGQGTQVTVSS,low polyreactivity
17,QVQLVESGGGLVQAGGSLRLSCAASGSIFDNNSMGWYRQAPGKERELVAAIDWSDGSTYYADSVKWRFTISRDNAKNTVYLQMNSLIPEDTSVYYCATVGKQKYDAKYGYWGQGTQVTVSS,high polyreactivity
18,QVQLVESGGGLVQAGGSLRLSCAASGSIFDNYAMGWYRQAPGKEREFDAGISWSGGSTRYADSVKGRFTISRDNAKNTVYLQMNSLKPEDTAVYYCNTGYGLVDFLYGYYYWGQGTQVTVSS,low polyreactivity
19,QVQLVESGGGLVQAGGSLRLSCAASGSIFDPNAMGWYRKALGKERELVAAITYSGVDTYYADSVKGRFTISLDNAKNTVYLQMNILKPEDTAVYFCAGDNGRVGYDYWGQGTQVTVSS,low polyreactivity
20,QVQLVESGGGLVQAGGSLRLSCAASGSIFDPYTMGWYRHEPGKESELVAAINWSGGSTYYADSVKGRFTISRENAKYTVYLQMNSLKPEDTAVYYCNADLTSYYEEDERNDDDYWGQGTQVTVSS,low polyreactivity
21,QVQLVESGGGLVQAGGSLRLSCAASGSIFDRYAMGWYRQAPGKERELVAAISTDGTRTYYADSVKGRFTISRDNAKNTVYLQMNSLKPEDTAVYYGAKYWRSNYYYWGQGTQVTVSS,high polyreactivity
22,QVQLVESGGGLVQAGGSLRLSCAASGSIFDSNAMGWYRQAPGKERELVAAITVSGGDTYYADSVKGRFTISRDNAKNTVYLQMISLKPEDTAVYYCAKQWFTYPYYYWGQGSQVTVSS,high polyreactivity

row,Sequence,polyreactivity (PSR sort gate)
1,QVQLVESGGGLVQAGGSLRLSCAASGSIFDSYAMGWYRQAPGKERELVADITSDGSTHYADSEKGRFRISRDNAKNTVYLQMNSLKPEDTAVYYCAADYFFYLLGVPVVDVYYWGQGTQVTVSS,low polyreactivity
2,QVQLVESGGGLVQAGGSLRLSCAASGSIFDSYAMGWYRQAPGKERELVASISYRGGSTYYADSVKGRFTISRDNAKNTVYLQMNSLKPEDTAVYYCAATPGYHYRSWRYYYWGQGTQVTVSS,high polyreactivity
3,QVQLVESGGGLVQAGGSLRLSCAASGSIFDVNAMGRYRQAPGKERELVAAISQRGTRTYYADSVKGRFTISRDNAKNTVYLQLNSLKPEDTAVYYCNRGGWRQYDSWGQGTQVTVSS,high polyreactivity
4,QVQLVESGGGLVQAGGSLRLSCAASGSIFDVNAMGWYRPAPGKERELVAAISDSGGSTYYADSVKGRFTISRDTAKNTVYLQMNSLKPEDTAVYYCNADWSWYNYYDFDYWGQGTQVTVSS,low polyreactivity
5,QVQLVESGGGLVQAGGSLRLSCAASGSIFDVNAMGWYRQAPGKERELVAAISDSGGSTYYADSVKGRFTISRDNAKNTVYLQMNSLKPEDTAVYYCNADWSWYNYYDLDYWGQGTQVTVSS,low polyreactivity
6,QVQLVESGGGLVQAGGSLRLSCAASGSIFDVNAMGWYRQAPGKERELVAAISQRGTRTYYADSVKGRFTISRDYAKNTVYLQMNSLTPEDTAVYYCNRGGWRQYDSWGQGTQVTVSS,high polyreactivity
7,QVQLVESGGGLVQAGGSLRLSCAASGSIFDVNTMGWYRQAPGKERELVASITSSGSTYYADSVKGRFTISRDNAKNTVYLQMNSLKPEDTAVYYCAAASGGTVVGEGDYWGQGSQVTVSS,low polyreactivity
8,QVQLVESGGGLVQAGGSLRLSCAASGSIFDVYAMGWYRPAPGKERELVATISYGDSSTYYADSVKGRFTISRDNAKNTVYFQMNSLKPEDTAVYYCAADYLTAPRWRLLGEMEYWGQGTQVTVSS,low polyreactivity
9,QVQLVESGGGLVQAGGSLRLSCAASGSIFDVYAMGWYRQAPGKERELVARITWSGGSTYYADSVKGRFTISRDNAKNTVYLQMTSLKPEDTAVYYCNVDQVHPTRGLDYWGQGTQVTVSS,low polyreactivity
10,QVQLVESGGGLVQAGGSLRLSCAASGSIFDWYAMGWYRQAPGKEGELVAAISSGDSTYYADSVKGRFTISRDNAKNTVYLQMNSLKPEYTAVYYCAAVTKLSGIRYNYWGQGTQVTVSS,low polyreactivity
11,QVQLVESGGGLVQAGGSLRLSCAASGSIFDYNAKGWYRPAPGKERELVASISGDSGSTYYADSVKGRFTISRDNAKNTVYLQMNSLKPEDTAVYYCAAPYVSWDYRYYYWGQGTQVTVSS,low polyreactivity
12,QVQLVESGGGLVQAGGSLRLSCAASGSIFDYNAMGWYRQAPGKERELVAAISGSGVRTYYADSVKGRFTISRDNAKNTVYLQMNSLKPEDTAVYYCAAAVGRPRREYDYWGQGTQVTVSS,high polyreactivity
13,QVQLVESGGGLVQAGGSLRLSCAASGSIFDYNAMGWYRQAPGKERELVAAISSGGSTNYADSVKGRFTISRDNAKNTVYLQMNSLKPEDTAVYYCNTGLYWLGYWPDDYWGQGTQVTVSS,low polyreactivity
14,QVQLVESGGGLVQAGGSLRLSCAASGSIFDYNAMGWYRQAPGKERELVAAISVNGGNTYYADSVKGRFTISRDNAKNTVYLQMNSLKPEDTAVYYCAADSYGGSKYDYWGQGTQVTVSS,low polyreactivity
15,QVQLVESGGGLVQAGGSLRLSCAASGSIFDYNAMGWYRQAPGKERELVASIRWSGGRTYYADSVKGRFTISRDNAKNTVYLQMNSLKPEDTAVYYCNKGLFSTGNIPYYLIVYLEYNYWGQGTQVTVSS,low polyreactivity
16,QVQLVESGGGLVQAGGSLRLSCAASGSIFDYNAMGWYRQAPGKEREYVAANTWGSGSTYYADSVKGRFTNSRDNAKNTVYLQMNSLKPEDTAVYYCNADDYGGSTGRKGRYNYWGQGTQVTVSS,low polyreactivity
17,QVQLVESGGGLVQAGGSLRLSCAASGSIFDYNGMGWYRQAPGKERELVATITLSTARTYYADSVKGRFTISRDNAKNTVYLQMNSLKPEDTAVYYCATRYPKFRRRNYWGQGTQVTVSS,high polyreactivity
18,QVQLVESGGGLVQAGGSLRLSCAASGSIFDYYAMGWYRQAPGKERELVAAISRSGSRTYYADSVKGRFTISRDNAKNTVYLQMNSLKPEDTAVYYCNAYLTLPYSNHAYYYWGQGTQVTVSS,high polyreactivity
19,QVQLVESGGGLVQAGGSLRLSCAASGSIFDYYAMGWYRQAPGKERELVASINSSGTGTFYADSVKGRFTISRDNAKNTVYLQMNSLKPEDTAVYSCATRQAVGYSSGRGYGYWGQGTQVTVSS,low polyreactivity
20,QVQLVESGGGLVQAGGSLRLSCAASGSIFDYYAMGWYRQAPGKERELVASITWSGGRTSYADSVKGRFTISRDNAKNTVYLQMNSLKPEDSAVYYCAAKLWSYAYQHKRVWYYYWGQGTQVTVSS,high polyreactivity
21,QVQLVESGGGLVQAGGSLRLSCAASGSIFDYYAMGWYRQAPGKERELVATISGGGGTTYYADSVKGRFTISRDNAKNTVYLQMNSLKPEDTAVYYCAAVSLGYNYWGQGTQVTVSS,low polyreactivity
